In series [1] the test system is T1, C. indologenes #3362.
T1 construct: 3362
As to the kind of experiment: microbe, parasite or virus in culture. On the set-up: species or system C. indologenes 3362; E. coli C41(DE3); Broth microdilution MIC, ISO 20776-1/EUCAST, cation-adjusted Mueller Hinton broth, after IPTG induction. The following applies: Chryseobacterium indologenes; native isolate carrying IND-2 and CIM-1. Here is the method:
(§1) The in vitro minimum inhibitory concentration (MIC) of β-lactams including penicillins, cephalosporins, and carbapenems in C. indologenes 3362 and E. coli C41(DE3) carrying different constructs were determined using the broth microdilution assay according to the International Standard ISO 20776-1 as recommended by EUCAST (the European Committee on Antimicrobial Susceptibility Testing). Briefly, bacterial cultures were grown aerobically at 37 °C to an OD600 0.4–0.6 in the presence of 25 μg/mL kanamycin, when necessary, before 1 mM IPTG (isopropyl-β-d-thiogalactopyranoside) was added. The induction was allowed for 2 h at 37 °C before the bacterial culture was diluted to 4 × 10^6 CFU/mL, and the microbroth dilution assays were performed. Cation-adjusted Mueller Hinton (CAMH) broth was used. All assays were repeated at least four times on four different days with different batches of cells.

Series [2] has as its system T2, E. coli C41(DE3) with pET41a(+).
T2 construct: C41(DE3) empty vector pET41a(+), control
As to the kind of experiment: microbe, parasite or virus in culture. On the set-up: species or system C. indologenes 3362; E. coli C41(DE3); Broth microdilution MIC, ISO 20776-1/EUCAST, cation-adjusted Mueller Hinton broth, after IPTG induction. The following applies: Escherichia coli; empty vector pET41a(+), IPTG induced. Here is the method:
as §1

Series [3] has as its target T3, NDM-4ΔSig (Klebsiella pneumoniae, UniProt C7C422, M154L).
T3 construct: gene blaNDM-1
The series is described as follows: steady-state hydrolysis, absorbance […] nm, plate reader. It is filed as biochemical. Conditions: read-out: Km (μM) / NDM-4ΔSig; 50 mM HEPES pH 7.0, 10 μM ZnSO4, 25 ± 2 °C, 100 nM enzyme.

In series [4] the test system is C[C@@H](O)[C@H]1C(=O)N2C(C(=O)O)=C(S[C@@H]3CN[C@H](C(=O)N(C)C)C3)[C@H](C)[C@H]12. The series is described as follows: purified protein. Format: biochemical, Klebsiella pneumoniae. Conditions: 50 mM HEPES pH 7.0, 10 μM ZnSO4, 25 ± 2 °C, 100 nM enzyme, 25.0 °C.
For series [5], the system named is CO/N=C(\C(=O)N[C@@H]1C(=O)N2C(C(=O)[O-])=C(C[N+]3(C)CCCC3)CS[C@H]12)c1csc(N)n1. The series is described as follows: purified protein. It is filed as biochemical, Klebsiella pneumoniae. Conditions: 50 mM HEPES pH 7.0, 10 μM ZnSO4, 25 ± 2 °C, 100 nM enzyme, 25.0 °C.
For series [6], the system named is C[C@@H](O)[C@H]1C(=O)N2C(C(=O)O)=C(SCCN=CN)C[C@H]12. As to the kind of experiment: purified protein. Format: biochemical, Klebsiella pneumoniae. Conditions: 50 mM HEPES pH 7.0, 10 μM ZnSO4, 25 ± 2 °C, 100 nM enzyme, 25.0 °C.
The subject of series [7] is CC(C)(O/N=C(\C(=O)N[C@@H]1C(=O)N2C(C(=O)[O-])=C(C[n+]3ccccc3)CS[C@H]12)c1csc(N)n1)C(=O)O. As to the kind of experiment: purified protein. It is filed as biochemical, Klebsiella pneumoniae. The following applies: 50 mM HEPES pH 7.0, 10 μM ZnSO4, 25 ± 2 °C, 100 nM enzyme, 25.0 °C.
Series [8] relates to C[C@@H](O)[C@H]1C(=O)N2C(C(=O)O)=C(S[C@@H]3CN[C@H](CNS(N)(=O)=O)C3)[C@H](C)[C@H]12. The series is described as follows: steady-state hydrolysis, UV absorbance, plate reader. Format: biochemical, Klebsiella pneumoniae. The following applies: 50 mM HEPES pH 7.0, 10 μM ZnSO4, 25 ± 2 °C, 100 nM enzyme, 25.0 °C. From the text: (§2) steady-state hydrolysis, UV absorbance, plate reader on NDM-4ΔSig

Series [9] relates to C[C@@H](O)[C@H]1C(=O)N2C(C(=O)O)=C(S[C@@H]3CN[C@H](C(=O)Nc4cccc(C(=O)O)c4)C3)[C@H](C)[C@H]12. The description is as above. Format: biochemical, Klebsiella pneumoniae. Conditions: 50 mM HEPES pH 7.0, 10 μM ZnSO4, 25 ± 2 °C, 100 nM enzyme, 25.0 °C.
Description: as §2

Series [10] addresses T4, IND-2ΔSig (Chryseobacterium indologenes, UniProt Q9ETN2).
T4 construct: gene blaIND-2b
As to the kind of experiment: steady-state hydrolysis, UV absorbance […] nm, plate reader. It is filed as biochemical. The following applies: read-out: Km (μM) / IND-2ΔSig; 50 mM HEPES pH 7.0, 10 μM ZnSO4, 25 ± 2 °C, 100 nM enzyme.

In series [11] the target is T4, IND-2ΔSig. The series is described as follows: steady-state hydrolysis, UV absorbance […] or […] nm, plate reader. The following applies: read-out: Km (μM) / IND-2ΔSig; 50 mM HEPES pH 7.0, 10 μM ZnSO4, 25 ± 2 °C, 100 nM enzyme.
In series [12] the test system is C[C@@H](O)[C@H]1C(=O)N2C(C(=O)O)=C(S[C@@H]3CN[C@H](C(=O)N(C)C)C3)[C@H](C)[C@H]12. The series is described as follows: purified protein. The following applies: 50 mM HEPES pH 7.0, 10 μM ZnSO4, 25 ± 2 °C, 100 nM enzyme, 25.0 °C.
For series [13], the system named is CO/N=C(\C(=O)N[C@@H]1C(=O)N2C(C(=O)[O-])=C(C[N+]3(C)CCCC3)CS[C@H]12)c1csc(N)n1. As to the kind of experiment: purified protein. The following applies: 50 mM HEPES pH 7.0, 10 μM ZnSO4, 25 ± 2 °C, 100 nM enzyme, 25.0 °C.
Series [14] relates to C[C@@H](O)[C@H]1C(=O)N2C(C(=O)O)=C(SCCN=CN)C[C@H]12. As to the kind of experiment: purified protein. Conditions: 50 mM HEPES pH 7.0, 10 μM ZnSO4, 25 ± 2 °C, 100 nM enzyme, 25.0 °C.
The subject of series [15] is C[C@@H](O)[C@H]1C(=O)N2C(C(=O)O)=C(S[C@@H]3CN[C@H](CNS(N)(=O)=O)C3)[C@H](C)[C@H]12. As to the kind of experiment: purified protein. The following applies: 50 mM HEPES pH 7.0, 10 μM ZnSO4, 25 ± 2 °C, 100 nM enzyme, 25.0 °C.
Description: steady-state hydrolysis, UV absorbance, plate reader on CIM-1ΔSig
The test system of series [16] is CC(C)(O/N=C(\C(=O)N[C@@H]1C(=O)N2C(C(=O)[O-])=C(C[n+]3ccccc3)CS[C@H]12)c1csc(N)n1)C(=O)O. The series is described as follows: purified protein. The following applies: 50 mM HEPES pH 7.0, 10 μM ZnSO4, 25 ± 2 °C, 100 nM enzyme, 25.0 °C.
The subject of series [17] is C[C@@H](O)[C@H]1C(=O)N2C(C(=O)O)=C(S[C@@H]3CN[C@H](C(=O)Nc4cccc(C(=O)O)c4)C3)[C@H](C)[C@H]12. The series is described as follows: purified protein. The following applies: 50 mM HEPES pH 7.0, 10 μM ZnSO4, 25 ± 2 °C, 100 nM enzyme, 25.0 °C.
In series [18] the test system is O=C(Cc1cccs1)N[C@@H]1C(=O)N2C(C(=O)O)=C(/C=C/c3ccc([N+](=O)[O-])cc3[N+](=O)[O-])CS[C@H]12. As to the kind of experiment: purified protein. Conditions: 50 mM HEPES pH 7.0, 10 μM ZnSO4, 25 ± 2 °C, 100 nM enzyme, 25.0 °C.
In series [19] the target is T4, IND-2ΔSig. As to the kind of experiment: steady-state hydrolysis, UV absorbance, plate reader. The following applies: read-out: Km (μM) / IND-2ΔSig; 50 mM HEPES pH 7.0, 10 μM ZnSO4, 25 ± 2 °C, 100 nM enzyme.

Values after ≈ are worked out from the molar mass of the structure shown. Bounds are passed on as bounds.

T4 sequence (Q9ETN2 entry or part of it, stated change not applied): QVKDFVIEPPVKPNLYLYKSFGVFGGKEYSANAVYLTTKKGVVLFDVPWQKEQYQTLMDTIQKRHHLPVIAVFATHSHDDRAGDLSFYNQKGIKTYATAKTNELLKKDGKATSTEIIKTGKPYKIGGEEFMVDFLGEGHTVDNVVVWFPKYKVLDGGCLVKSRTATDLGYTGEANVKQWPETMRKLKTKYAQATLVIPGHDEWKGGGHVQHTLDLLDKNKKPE
T3 sequence (C7C422 26-270 M154L): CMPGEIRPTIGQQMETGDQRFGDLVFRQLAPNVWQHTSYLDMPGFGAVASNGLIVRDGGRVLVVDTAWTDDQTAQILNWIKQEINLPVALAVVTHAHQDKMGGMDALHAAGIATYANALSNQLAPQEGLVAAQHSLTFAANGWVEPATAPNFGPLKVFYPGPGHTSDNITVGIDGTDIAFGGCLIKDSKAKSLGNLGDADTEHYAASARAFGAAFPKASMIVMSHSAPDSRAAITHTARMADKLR

As to `C[C@@H](O)[C@H]1C(=O)N2C(C(=O)O)=C(SCCN=CN)C[C@H]12` [Imipenem], the figures for the MIC in series [1] and in [2] were 128 µg/mL (≈ 428 µM) and 0.5 µg/mL (≈ 1.67 µM), respectively.

As for `O=C(Cc1cccs1)N[C@@H]1C(=O)N2C(C(=O)O)=C(/C=C/c3ccc([N+](=O)[O-])cc3[N+](=O)[O-])CS[C@H]12` [Nitrocefin], in series [3], the Km turned out to be 11 ± 1.8 µM.

As to `Cc1nnc(SCC2=C(C(=O)O)N3C(=O)[C@@H](NC(=O)Cn4cnnn4)[C@H]3SC2)s1` [*Cefazolin (1st)], the MIC in series [1] is 256 µg/mL (≈ 563 µM); in series [2], 2 µg/mL (≈ 4.4 µM).

As for `C[C@H]1[C@H](NC(=O)/C(=N\OC(C)(C)C(=O)O)c2csc(N)n2)C(=O)N1S(=O)(=O)O` [Aztreonam], the values for the MIC in [1] and in series [2] were more than 512 µg/mL and less than 0.02 µg/mL, respectively.

Usually kcat stands for the number of substrate molecules converted per active site and unit of time at saturation. As a reminder, the kcat/Km is the second-order rate constant that governs catalysis at low substrate concentration. As to “NDM-4ΔSig (Klebsiella pneumoniae; M154L)”, the Km in [4] was 163 ± 22 µM; in [5], 136 ± 16 µM; in [6] it was 151 ± 22 µM; in series [7] it was 93 ± 14 µM; in series [8], 253 ± 19 µM; in series [9], 159 ± 22 µM. The kcat in series [4] is 25 s⁻¹; in [5], 5.4 s⁻¹; in series [6], 31 s⁻¹; in series [7], 6.3 s⁻¹; in [8], 51 s⁻¹; in series [9] it was 17 s⁻¹. In addition, the kcat/Km in [4] was 150000 M⁻¹ s⁻¹; in [5], 40000 M⁻¹ s⁻¹; in series [6], 210000 M⁻¹ s⁻¹; in series [7] it was 68000 M⁻¹ s⁻¹; in [8] it was 200000 M⁻¹ s⁻¹; in series [9], 110000 M⁻¹ s⁻¹.

As for `CC(C)(O/N=C(\C(=O)N[C@@H]1C(=O)N2C(C(=O)[O-])=C(C[n+]3ccccc3)CS[C@H]12)c1csc(N)n1)C(=O)O` [Ceftazidime], the MIC was 16 µg/mL (≈ 29.3 µM) in series [1] and 0.125 µg/mL (≈ 0.229 µM) in series [2]. Besides, the Km in series [10] is more than 1000 µM.

With `CO[C@@]1(NC(=O)Cc2cccs2)C(=O)N2C(C(=O)O)=C(COC(N)=O)CS[C@@H]21` [*Cefoxitin (2nd)], the MIC in [1] was 32 µg/mL (≈ 74.9 µM); in [2], 0.5 µg/mL (≈ 1.17 µM).

On to `C[C@@H](O)[C@H]1C(=O)N2C(C(=O)O)=C(S[C@@H]3CN[C@H](C(=O)N(C)C)C3)[C@H](C)[C@H]12` [Meropenem], for which the MIC was found to be 128 µg/mL (≈ 334 µM) in series [1] and 0.031 µg/mL (≈ 0.0808 µM) in series [2]. Also, in series [11], the Km is more than 1000 µM.

On to `CC1(C)S[C@@H]2[C@H](NC(=O)[C@H](N)c3ccccc3)C(=O)N2[C@H]1C(=O)O` [Ampicillin], for which the values for the MIC in series [1] and in series [2] were 512 µg/mL (≈ 1470 µM) and 4 µg/mL (≈ 11.4 µM), respectively.

“CIM-1ΔSig (Chryseobacterium indologenes)”: the Km was determined as 143 ± 19 µM in [12]; 538 ± 56 µM in series [13]; 94 ± 7 µM in series [14]; 175 ± 24 µM in series [15]; 324 ± 42 µM in series [16]; 91 ± 11 µM in series [17]. Besides, in series [18], the Km is 33 ± 6 µM. For the same compound, the kcat was 15 s⁻¹ in series [12]; 15.3 s⁻¹ in series [13]; 8.5 s⁻¹ in [14]; 21 s⁻¹ in [15]; 30 s⁻¹ in series [16]; 9.2 s⁻¹ in series [17]. Further, in [18], the kcat was 2.8 s⁻¹. The kcat/Km in series [12] stood at 100000 M⁻¹ s⁻¹; in series [13], 28000 M⁻¹ s⁻¹; in [14], 90000 M⁻¹ s⁻¹; in series [15], 120000 M⁻¹ s⁻¹; in series [16], 93000 M⁻¹ s⁻¹; in series [17], 100000 M⁻¹ s⁻¹. In addition, the kcat/Km in series [18] is 85000 M⁻¹ s⁻¹.

“IND-2ΔSig (Chryseobacterium indologenes)”: the Km was 728 ± 102 µM in [14], 1069 ± 105 µM in [17] and 113 ± 6.9 µM in series [18]. Also, the results for the kcat in [14], in series [17] and in series [18] were 208 s⁻¹, 127 s⁻¹ and 78 s⁻¹, respectively. For the same compound, the kcat/Km was found to be 290000 M⁻¹ s⁻¹ in [14], 120000 M⁻¹ s⁻¹ in series [17] and 680000 M⁻¹ s⁻¹ in series [18].

For the compound `C[C@@H](O)[C@H]1C(=O)N2C(C(=O)O)=C(S[C@@H]3CN[C@H](CNS(N)(=O)=O)C3)[C@H](C)[C@H]12` [Doripenem], the MIC in series [1] is 128 µg/mL (≈ 304 µM); in series [2], 0.063 µg/mL (≈ 0.15 µM). The Km in series [19] was more than 1000 µM.

For `C[C@@H](O)[C@H]1C(=O)N2C(C(=O)O)=C(S[C@@H]3CN[C@H](C(=O)Nc4cccc(C(=O)O)c4)C3)[C@H](C)[C@H]12` [Ertapenem], the MIC was 64 µg/mL (≈ 135 µM) in series [1] and 0.016 µg/mL (≈ 0.0336 µM) in series [2].

Regarding `CO/N=C(\C(=O)N[C@@H]1C(=O)N2C(C(=O)[O-])=C(C[N+]3(C)CCCC3)CS[C@H]12)c1csc(N)n1` [Cefepime], the MIC turned out to be 2 µg/mL (≈ 4.16 µM) in [1] and 0.031 µg/mL (≈ 0.0645 µM) in series [2].
